Measurements taken from patent US20230277593A1.
Each block holds one binder with its values, some of them ahead of it.

Experiments:
[1] = biological target: HLA-A*02 on target cells (human); assay: cell-based or functional assay
[2] = biological target: Epidermal Growth Factor Receptor (EGFR) on target cells (human), P00533; assay: cell-based or functional assay

Human Blocker EC50 (ng), with activator CT486; HLA-A*02 mRNA titrated into target cells [1]: 4000 ng | Human Blocker EC50 (ng), with activator CT487; HLA-A*02 mRNA titrated into target cells [1]: 2900 ng | Human Blocker EC50 (ng), with activator CT488; HLA-A*02 mRNA titrated into target cells [1]: 3500 ng | Human Blocker EC50 (ng), with activator CT489; HLA-A*02 mRNA titrated into target cells [1]: 3200 ng | selectivity ratio (humanized blocker C2162 paired with CT486) [1]: 17 | selectivity ratio (humanized blocker C2162 paired with CT487, first mention) [1]: 5 | selectivity ratio (humanized blocker C2162 paired with CT487 as printed, second mention) [1]: 5 | selectivity ratio (humanized blocker C2162 paired with CT489) [1]: 24.2
B1: HLA-A*02 PA2.1 scFv LIR1 inhibitor (C2162) (scFv, part only; not given: LIR-1 hinge, transmembrane and intracellular, part only)
scFv, part: QVQLVQSGAEVKKPGSSVKVSCKASGYTFTSYHIHWVRQAPGQGLEWIGWIYPGNVNTEYNEKFKGKATITADESTNTAYMELSSLRSEDTAVYYCAREEITYAMDYWGQGTLVTVSSGGGGSGGGGSGGGGSGGDIQMTQSPSTLSASVGDRVTITCRSSQSIVHSNGNTYLEWYQQKPGKAPKLLIYKVSNRFSGVPARFSGSGSGTEFTLTISSLQPDDFATYYCFQGSHVPRTFGQGTKVEVK

Mouse Blocker EC50 (ng), with activator CT486; HLA-A*02 mRNA titrated into target cells [1]: 4700 ng | Mouse Blocker EC50 (ng), with activator CT487; HLA-A*02 mRNA titrated into target cells [1]: 3500 ng | Mouse Blocker EC50 (ng), with activator CT488; HLA-A*02 mRNA titrated into target cells [1]: 4700 ng | Mouse Blocker EC50 (ng), with activator CT489; HLA-A*02 mRNA titrated into target cells [1]: 4200 ng | selectivity ratio (mouse blocker C1765 paired with CT486) [1]: 15.7 | selectivity ratio (mouse blocker C1765 paired with CT487, first mention) [1]: 18.4 | selectivity ratio (mouse blocker C1765 paired with CT487 as printed, second mention) [1]: 21.2 | selectivity ratio (mouse blocker C1765 paired with CT489) [1]: 21.6 | shift of CAR EMAX (Jurkat NFAT-luciferase, with EGFR CAR CT479, HeLa target cells) [1]: > 5 fold
B2: HLA-A*02 PA2.1 scFv LIR1 inhibitor (C1765) (scFv, part only; not given: LIR-1 hinge, transmembrane and intracellular, part only)
scFv, part: DVLMTQTPLSLPVSLGDQASISCRSSQSIVHSNGNTYLEWYLQKPGQSPKLLIYKVSNRFSGVPDRFSGSGSGTDFTLKISRVEAEDLGVYYCFQGSHVPRTSGGGTKLEIKGGGGSGGGGSGGGGSGGQVQLQQSGPELVKPGASVRISCKASGYTFTSYHIHWVKQRPGQGLEWIGWIYPGNVNTEYNEKFKGKATLTADKSSSTAYMHLSSLTSEDSAVYFCAREEITYAMDYWGQGTSVTVSS

Activator EC50 (ng); EGFR mRNA titrated into EGFR negative target cells [2]: 3500 ng
B3: CT-487 EGFR scFv CAR activator (scFv, not shown: small tags and cut ends)
scFv: QVQLVQSGAEVKKPGASVKVSCKASGYTFTSHWMHWVRQAPGQGLEWIGEFNPSNGRTNYNEKFKSKATMTVDTSTNTAYMELSSLRSEDTAVYYCASRDYDYDGRYFDYWGQGTLVTVSSGGGGSGGGGSGGGGSGGDIQMTQSPSSLSASVGDRVTITCSASSSVTYMYWYQQKPGKAPKLLIYDTSNLASGVPSRFSGSGSGTDYTFTISSLQPEDIATYYCQQWSSHIFTFGQGTKVEIK
